The results in this text go back to US12480163.

For this data set, the target named is p53 (tumor protein 53, TP53).

B1: Wip1 (wild-type p53-induced phosphatase 1; encoded by the PPM1D gene) (protein)
chain: MAGLYSLGVSVFSDQGGRKYMEDVTQIVVEPEPTAEEKPSPRRSLSQPLPPRPSPAALPGGEVSGKGPAVAAREARDPLPDAGASPAPSRCCRRRSSVAFFAVCDGHGGREAAQFAREHLWGFIKKQKGFTSSEPAKVCAAIRKGFLACHLAMWKKLAEWPKTMTGLPSTSGTTASVVIIRGMKMYVAHVGDSGVVLGIQDDPKDDFVRAVEVTQDHKPELPKERERIEGLGGSVMNKSGVNRVVWKRPRLTHNGPVRRSTVIDQIPFLAVARALGDLWSYDFFSGEFVVSPEPDTSVHTLDPQKHKYIILGSDGLWNMIPPQDAISMCQDQEEKKYLMGEHGQSCAKMLVNRALGRWRQRMLRADNTSAIVICISPEVDNQGNFTNEDELYLNLTDSPSYNSQETCVMTPSPCSTPPVKSLEEDPWPRVNSKDHIPALVRSNAFSENFLEVSAEIARENVQGVVIPSKDPEPLEENCAKALTLRIHDSLNNSLPIGLVPTNSTNTVMDQKNLKMSTPGQMKAQEIERTPPTNFKRTLEESNSGPLMKKHRRNGLSRSSGAQPASLPTTSQRKNSVKLTMRRRLRGQKKIGNPLLHQHRKTVCVC
For B1, the “phospho-Serine15-p53 protein levels (Western blot) after combined ATSP-7041 and GSK2830371 treatment” value was “the combination of ATSP-7041 and GSK2830371 increased the phosphorylation of p53 at Serine 15 in two Ewing sarcoma cell lines”; the “phosphorylation of Serine 15 of p53 (Western blot) after GSK2830371 treatment” value was “GSK2830371 reduced the protein levels of Wip1 in a time-dependent manner and triggered a surge in phosphorylation of Serine 15 of p53”.
